Test results taken from patent US8658372.

Target: botulinum toxoid A (UniProt P0DPI0)
Test: Luminex AMP-capture assay with antibody tracers

botulinum toxoid A, sequence (P0DPI0 2-1296): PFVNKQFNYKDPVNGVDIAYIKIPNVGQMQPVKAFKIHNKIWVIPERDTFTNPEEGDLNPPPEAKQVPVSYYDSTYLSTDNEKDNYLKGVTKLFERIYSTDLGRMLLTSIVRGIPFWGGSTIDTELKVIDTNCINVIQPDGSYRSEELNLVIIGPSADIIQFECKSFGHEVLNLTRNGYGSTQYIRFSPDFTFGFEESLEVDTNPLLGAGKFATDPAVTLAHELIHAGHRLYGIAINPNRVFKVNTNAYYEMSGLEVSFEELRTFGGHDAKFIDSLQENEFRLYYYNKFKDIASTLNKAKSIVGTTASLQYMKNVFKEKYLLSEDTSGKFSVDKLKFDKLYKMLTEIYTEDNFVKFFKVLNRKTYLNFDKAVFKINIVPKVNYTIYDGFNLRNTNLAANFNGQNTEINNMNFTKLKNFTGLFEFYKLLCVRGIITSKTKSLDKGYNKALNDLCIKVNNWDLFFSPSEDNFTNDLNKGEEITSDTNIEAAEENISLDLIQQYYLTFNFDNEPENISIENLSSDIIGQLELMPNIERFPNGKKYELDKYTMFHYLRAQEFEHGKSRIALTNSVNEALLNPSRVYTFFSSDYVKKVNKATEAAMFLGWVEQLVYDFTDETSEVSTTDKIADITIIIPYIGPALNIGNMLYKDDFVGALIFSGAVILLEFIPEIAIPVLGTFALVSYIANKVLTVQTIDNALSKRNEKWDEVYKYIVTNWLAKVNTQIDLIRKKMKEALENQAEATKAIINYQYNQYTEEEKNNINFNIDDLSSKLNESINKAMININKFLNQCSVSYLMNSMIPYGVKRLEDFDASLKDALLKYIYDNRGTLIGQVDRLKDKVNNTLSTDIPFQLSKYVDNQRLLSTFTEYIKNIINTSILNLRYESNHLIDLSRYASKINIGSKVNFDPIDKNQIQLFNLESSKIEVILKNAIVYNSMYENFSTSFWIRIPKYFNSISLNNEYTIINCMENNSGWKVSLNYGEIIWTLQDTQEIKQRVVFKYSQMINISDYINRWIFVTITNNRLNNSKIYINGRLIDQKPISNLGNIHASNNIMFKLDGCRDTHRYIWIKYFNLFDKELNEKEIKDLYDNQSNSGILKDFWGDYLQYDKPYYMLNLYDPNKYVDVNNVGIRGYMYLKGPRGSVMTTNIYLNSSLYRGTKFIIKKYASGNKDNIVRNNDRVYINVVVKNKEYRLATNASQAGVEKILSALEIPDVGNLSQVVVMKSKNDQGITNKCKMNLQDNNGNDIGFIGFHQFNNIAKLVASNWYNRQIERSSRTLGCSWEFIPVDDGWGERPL

For AMP-derivatized Luminex beads, which lowest detectable concentration is on record?
The lowest detectable concentration was 1 µg/mL.
